In the nanobody polyreactivity screen of Harvey et al. (2022):

Experiment: yeast display, Sf9 membrane polyspecificity reagent, FACS + sequencing; frameworks hold sequencing errors
Method in brief: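 Using colony PCR, genes from sorted yeast display clones were amplified, then sequenced on MiSeq at 2 × 250 and filtered by CDR length. The clones had been stained with 10% biotinylated, detergent-solubilized Sf9 membrane reagent for 1 hour at 4 °C and sorted by FACS into low and high (top ~1%) gates on anti-HA and streptavidin fluorescence. Polyreactivity labels come from the gate of origin.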

Sequence | polyreactivity (PSR sort gate)
QVQLVESGGGLVQAGGSLRLSCAASGRIFDSYAMGWYRQAPGKERELVAVISNNDGTTYYADSVKGRFTISRDNAKTTVYLQMNSLKPEDTAVYYCNAVYSSGVDGSEGFDYWGQGTQVTVSS | low polyreactivity
QVQLVESGGGLVQAGGSLRLSCAASGRIFDTNAMGWYRQAPGKERELVAAITYSGGSTYYADSVKGRFTISRDNAKNTVYLQMNSLKPEDTAVYYCAAGPYDPRYDYWGQGTQVTVSS | high polyreactivity
QVQLVESGGGLVQAGGSLRLSCAASGRIFDTNVMGWYRQAPGKERELVAALSYSGGSTYYADSVKGRFTISRDNAKNTVYLQMNSLKPEDTAVYYCAAQYWQGDYDYRGQGTQVTVSS | high polyreactivity
QVQLVESGGGLVQAGGSLRLSCAASGRIFDVYAKGWYRQAPGKERELFAAISKSDGRTYYADSVKGRFTISRDNAKNTVYLQMNSLKPEDTAVYYCNVRAYGARAGTKMYYWGQGTQVNVSS | low polyreactivity
QVQLVESGGGLVQAGGSLRLSCAASGRIFDVYAMGWYRQAPGKERELVATITGSGGGTYYADSVKGRFTISRDNAKNTVYLQMNSLKPEDSEVYYCASYYYPNYAYYVSNVVYDYWVQGTQVTVSS | low polyreactivity
QVQLVESGGGLVQAGGSLRLSCAASGRIFDWNAMGWYRQAPGKERELVAAISYSDGSTYYADSVKGRFTISRDNAKNTVYLQMNSLKREDTAVYYCDADFYDRTYITWYEYWGQGTQVTVSS | high polyreactivity
QVQLVESGGGLVQAGGSLRLSCAASGRIFDWNTMGRYRQAPGKERELVAAISYEGSTYYADSVKGRFTISRDNAKNTVYLQMNSLKPEDTAVFYCNAYPLTQYFAQGYDYWGQGTQVTVSS | low polyreactivity
QVQLVESGGGLVQAGGSLRLSCAASGRIFDYNAMGWYRQVPGKERELVAAITKDDGSTYYADSVKGRFTISRDNAKNTVYLQMTSLKPEDTAVYYCAADFYWTYVDIWYDYWGHGTQVTVSS | low polyreactivity
QVQLVESGGGLVQAGGSLRLSCAASGRIFDYYAMGWYRPAPGKERELVAAITSGGTTTYYADSVKGRFTISRDNAKNTVYVQMNSLKPEDTAVYYCAKYPYHIYHTDGDYWGQGTQVTVSS | low polyreactivity
QVQLVESGGGLVQAGGSLRLSCAASGRIFDYYAMGWYRQAPGKERELVAAIDWRGDRTYYADSVKGRFTISRDNAKNTVYLQMNSLKPEDTAVYYCNVLDTRQVGGYRFDYWGQGTQVTVSS | low polyreactivity
QVQLVESGGGLVQAGGSLRLSCAASGRIFDYYAMGWYRQAPGKERELVAAISSSVGNTYYADSVKGRFTISRDNAKNTVYLQMNSLKPEDTAVYYCADYSYVRSSYEVEYDYWGQGTQVTVSS | low polyreactivity
QVQLVESGGGLVQAGGSLRLSCAASGRIFDYYAMGWYRQAPGKERELVASISRSGGSTYYADSVKGRFTISRDNAKNTVYLQMNSLKPEDTAVYYCAAVRYITKEFYWGQGTQVTVSS | high polyreactivity
QVQLVESGGGLVQAGGSLRLSCAASGRIFDYYAMGWYRQAPGKERELVAVINRDGSTYYADSVKGRFTISRDNAKNTVYLQMNSLKPEDTAVYYCARDSAWAARGPFTDGAYDSWGQGTQVTVSS | low polyreactivity
QVQLVESGGGLVQAGGSLRLSCAASGRIFDYYAMGWYRQAPGKERELVAVISRGGRTKYADSVKGRFTISRDNAKNTVYLQMNSLKPEDTAVFYCAAYPSYYGDSGLRYDYWGQGTQVTVSS | high polyreactivity
QVQLVESGGGLVQAGGSLRLSCAASGRIFDYYGMGWYRHAPGKERELVAAITSSGSRTYYADSVKGRFTISRDNAKNTVYLQMNSLKPEDTAVYYCARGGGRRKGLVDYWGQGTQVTVSS | low polyreactivity
QVQLVESGGGLVQAGGSLRLSCAASGRIFDYYTMGWYRQAPGKESELVAAITKSGGSTYYADSVKGRFTISRDNAKNTVFLLMNILKPEDTAVYYCAAVTYDYYWFGDIEDDFWGQGTQVTVSS | low polyreactivity
QVQLVESGGGLVQAGGSLRLSCAASGRIFEHYAMGWYRQAPGKERELVATISSGGSTYYADSVKGRFTISRDNAKNTVYLQMNSLKPEDTAVYYCAAERFWPYKSYYWGQGTQVTVSS | low polyreactivity
QVQLVESGGGLVQAGGSLRLSCAASGRIFELNARGWYSQAPGKERELVAVISSGGNTHYADSVKGRFTISRDNAKNTVYLQMNSLNPEDTAVYYCAAVASKHWGRDYWGQGTQVTVSS | low polyreactivity
QVQLVESGGGLVQAGGSLRLSCAASGRIFEPYAMGWYRQAPGNERELVAAINSGGSTNYADSVKGRFTISRDNAKNTVYLQMNSLKPEDTAVYYCAASVYGQHAGPGRWYTFYYWGQGTQVTVSS | low polyreactivity
QVQLVESGGGLVQAGGSLRLSCAASGRIFESKAMGWYRQAPGKERELVAAISVNGASTSYADSVKGRFTISRDNAKNTVYLQMNSLKPEDTAVYYCAARRGKGYYYWGQGTQVTVSS | high polyreactivity
QVQLVESGGGLVQAGGSLRLSCAASGRIFEVNVMGWYRQAPGKERELVAAITTGGGSTYYADSVKGRFTISRDNAKNTVYLQMNSLKPEDTAVYYCAAEPILIDEYWGQGTQVTVSS | low polyreactivity
QVQLVESGGGLVQAGGSLRLSCAASGRIFEVYDMGWYRKAPGKERELVAAISESDDNTYYADSVKGRFTISRDNAKNTVYLQMNSLKPEDTAVYYCNADVPGDTGWWGFDYWGQGTQVTVSS | low polyreactivity

Sequence | polyreactivity (PSR sort gate)
QVQLVESGGGLVQAGGSLRLSCAASGRIFFANAMGWYRQAPGKERELVATITSGESTNYADSVKGRFTISRDNAKNTVYFEMNSLKPEDTAVYYCAADYYWYSPGAYSYAGYDYWGQGTQVTVSS | low polyreactivity
QVQLVESGGGLVQAGGSLRLSCAASGRIFFDYAMGWYRQAPGKERELGADISYNGGSTNYADSVKGRFTISRDNAKNTVYLQMISLKPEDTAVYYCNRALVPVYDLDYYWGQGTQVTVSS | low polyreactivity
QVQLVESGGGLVQAGGSLRLSCAASGRIFFDYAMGWYRQAPGKERELVAAISSGGSRTYYADSVKGRFTISRDNAKNTVYLQMNSLKPEDTAVYYCAADSTVYQDEYWGQGTQVTVSS | high polyreactivity
QVQLVESGGGLVQAGGSLRLSCAASGRIFFDYDMGWYRPAPGKERELVAAISSSGDSTYYADSVKGRFTISRDNAKNTVYLQMNSLKPEDTAVYYCNAKSVPVNYVAIKYDYWGQGTQVTVSS | high polyreactivity
QVQLVESGGGLVQAGGSLRLSCAASGRIFFKYAMGWYRQAPGKERELVAAISKTGGRTYYADSVKGRFTISRDNAKNTVYLQMNSLKPEDTAVYYCRGYTSFGYDYWGQGTQVTVSS | high polyreactivity
QVQLVESGGGLVQAGGSLRLSCAASGRIFFLYAMAWYRQAPGKEREFVAAISSSGGSTYYADSVKGRFTISRDNAKNTVYLKMNSLKPEDTAVYYCNADATWSGYIVSYDYWGQGTQVTVSS | low polyreactivity
QVQLVESGGGLVQAGGSLRLSCAASGRIFFPYAMGWYRQAPGKERELVAAISTSSGRTYYADSVKGRFTISRDNAKNTVYLQMNSLKPEDTAVYYCNTRPGSYSYSYRYYYWGQGTQVTVSS | high polyreactivity
QVQLVESGGGLVQAGGSLRLSCAASGRIFFPYAMGWYRQAPGKERELVAVITSGGTTYYADSVKGRFRISRDNAKNTVYLQMNSLKTEDTAVYYCAVHWYSYRYAATMDYWGQGTQVTVSS | high polyreactivity
QVQLVESGGGLVQAGGSLRLSCAASGRIFFRNAMGWYRQAPGKERELVAAITWNGGSTYYADSVKGRFTISRDIAKNTVYLQMNSLKPEDTAVYYCNKAGVSYRSQYYYWGQGTQVTVSS | high polyreactivity
QVQLVESGGGLVQAGGSLRLSCAASGRIFFRNAMGWYRQAPGKERELVAAITYSGGSTYYADSVKGRFTISRDNAKNTVYFQMNSLKPEDTAVYYCYADYYPYGEYDYWGQGTQVTVSS | high polyreactivity
QVQLVESGGGLVQAGGSLRLSCAASGRIFFRYAMGWYRQAPGKEREFVAAISGTGGSTYYADSVKGRFTISRDNAKNTVYLQMNSLKPEDTAVYYCAASVVSRPTYYAYYYWGQGTQVTVSS | high polyreactivity
QVQLVESGGGLVQAGGSLRLSCAASGRIFFRYTMGWYRQAPGKESELVAAITKRGGTYYADSVKGRFTISRDNAKNTVYLQMNSLKPEDTAVYYCNAVRYGINSYTYRRGYWGQGTQVTVSS | high polyreactivity
QVQLVESGGGLVQAGGSLRLSCAASGRIFFSYMGWYRQAPGKERELVAAISSGGSTYYADSVKGRFTISRDNAKNTVYLQMNSLKPEDTAVYYCAARYRLDGTHMTGYAYYSWGQGTQVTVSS | high polyreactivity
QVQLVESGGGLVQAGGSLRLSCAASGRIFFWYAMGWYRQAPGKERELVAGITSGGSTNYADSVKGRFTISRDNAKNTVYLQMNSLKPEDTAVYYCNTVDSIPIGSGLYYYWGQGTQVTVSS | low polyreactivity
QVQLVESGGGLVQAGGSLRLSCAASGRIFFYYAMGWYRQAPGKERELVATISYSGGGTYYADSVKGRFTISRDNAKNTVYLQMNSLKPEDTAAYYCNARWGTPYYIQDFDYWGQGTQVTVSS | low polyreactivity
QVQLVESGGGLVQAGGSLRLSCAASGRIFGAYAMGWYRQAPGKERELVAAITSRGGNTYYADSVKGRFTISRDNAKNTVDLQMNSLKPEDTAVYYCAARHDKRRQYYFGQSAFDYWGQGTQVTVSS | low polyreactivity
QVQLVESGGGLVQAGGSLRLSCAASGRIFGAYAMGWYRQAPGKERELVAASSSGGSTYYADSVKGRFTISRDNAKNTVSLQMKSLNPEDTAVYYCAASSGNGYGYWGQGTQVSVSS | high polyreactivity
QVQLVESGGGLVQAGGSLRLSCAASGRIFGAYAMGWYRQAPGKERELVATITKRGGSTFYADSVKGRFTISRDNAKNTVYLQMNSLKPEDTAVYYCAVSSFYRGRYDYWGQGTQVTVSS | high polyreactivity
QVQLVESGGGLVQAGGSLRLSCAASGRIFGCYAMGWYRQAPGKERELVAAISSGGNTKYADSVKGRFTISRDNAKNTVYLQMNSLKPEDTAVYYCAAKFAQPDYRYDYWGQGTQVTVSS | high polyreactivity
QVQLVESGGGLVQAGGSLRLSCAASGRIFGDNGMGWYRQAPGKERELVTYADSVKGRFTISRDNAKNTVYLQLNSLQPEDTAVYYCYSPFGGKYDYWGQGTQVTVSS | low polyreactivity
QVQLVESGGGLVQAGGSLRLSCAASGRIFGDYAMGWYRQAPGKERELVADITWSGGSTYYADSVKGRFTISRDNAKNTVYLQMNSLKPEDTAVYYCNADVWFYYTFDYWGQGTQVTVSS | low polyreactivity
